From patent publication US20090104147A1 come the findings set out here.

The target in experiment [1] is porcine sialoadhesin (pig) (UniProt A7LCJ3). Kind of experiment: cell-based or functional assay.
Experiment [2] deals with recombinant sialoadhesin expressed on CHO cells (CHO-Sn). Kind of experiment: cell-based or functional assay.

mAb 41D3/saporin conjugate: in experiment [1], the % Living cells, primary porcine macrophages, conjugate concentration 0.3*10^-6 worked out at 30.4%; the % Living cells, primary porcine macrophages, conjugate concentration 10^-7 stood at 29.3%; the MTT assay OD value, primary porcine macrophages, column head 10 came out at 0.537 OD; the MTT assay OD value, primary porcine macrophages, column head 30 came to 0.541 OD. Further, in experiment [2], the % Living cells, CHO-Sn cells, conjugate concentration 0.1*10^-6 stood at 64.4%; the % Living cells, CHO-Sn cells, conjugate concentration 0.25*10^-6 was determined as 57.1%; the % Living cells, CHO-Sn cells, conjugate concentration 0.5*10^-6 amounted to 64.2%; the % Living cells, CHO-Sn cells, conjugate concentration 10^-7 turned out to be 63%. Besides, in experiment [2], the MTT assay OD value, CHO-Sn cells, 25 was 1.35 OD; the MTT assay OD value, CHO-Sn cells, column head 6.25 amounted to 1.45 OD; the MTT assay OD value, CHO-Sn cells, column head 12.5 is 1.47 OD; the MTT assay OD value, CHO-Sn cells, column head 50 came to 1.47 OD.
